The results in this text go back to patent publication US20230310634A1 (IMMUNEXT, published 2023).

One test deals with T1, human VISTA (human, UniProt Q9H7M9 33-194, limits assumed).
T1 sequence: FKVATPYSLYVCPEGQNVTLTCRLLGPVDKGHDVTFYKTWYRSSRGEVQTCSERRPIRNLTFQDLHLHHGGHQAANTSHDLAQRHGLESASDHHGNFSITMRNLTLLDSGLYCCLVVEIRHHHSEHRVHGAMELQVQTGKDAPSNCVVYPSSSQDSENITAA
The test can be described thus: SPR on a ProteOn instrument; format of antibody and antigen not stated.

Test [1] deals with T2, hIX50 (human VISTA ECD) (human, UniProt Q9H7M9 33-194, biotinylated in the pH ELISA (sites not given); not biotinylated when coated on the plate).
T2 construct: also called soluble VISTA; biotinylated hIX50
T2 sequence: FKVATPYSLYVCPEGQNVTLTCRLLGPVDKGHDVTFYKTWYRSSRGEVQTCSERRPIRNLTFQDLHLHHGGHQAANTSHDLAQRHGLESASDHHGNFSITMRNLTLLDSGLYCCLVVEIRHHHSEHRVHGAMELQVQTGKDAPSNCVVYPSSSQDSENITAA
In words: ELISA: hIX50 coated at 1 ug/mL, antibody titrated, mouse anti-human kappa-HRP/TMB, OD450. Background: ELISA stands for enzyme-linked immunosorbent assay.

In test [2] the target is T2, hIX50 (human VISTA ECD). The test can be described thus: ELISA: INX200 coated at 1 ug/mL, biotinylated hIX50 titrated at pH 7.5, streptavidin-HRP/TMB; the concentration is that of hIX50.
Test [3] addresses T2, hIX50 (human VISTA ECD). In words: ELISA: hIX50 coated at 1 ug/mL, conjugate titrated, mouse anti-human kappa-HRP/TMB, OD450.

B1: VSTB56 (antibody, V domains shown)
VH: QVQLVQSGAEVKKPGASVKVSCKASGYTFTSYWLHWVRQAPGQGLEWMGYIIPNTLHTDYNQKFKDRVTMTRDTSTSTVYMELSSLRSEDTAVYYCARLDGDYDYALDYWGQGTLVTVSS
VL: DIVMTQTPLSLSVTPGQPASISCRASESVEYYGTSFMQWYLQKPGQPPQLLIYTASNVESGVPDRFSGSGSGTDFTLKISRVEAEDVGVYYCQQSRKVPYTFGQGTKLEIK
Usually Kd stands for a measure of binding affinity in units of concentration. A low value points to tighter binding. Regarding B1, the Kd in the test with human VISTA stood at 0.02 nM. That is a picomolar value.

B2: VSTB103 (antibody, V domains shown)
VH: EVQLVQSGAEVKKPGESLKISCKGSGYSFTSYWIGWVRQMPGKGLEWMGIIYPGDSDTRYSPSFQGQVTISADKSISTAYLQWSSLKASDTAMYYCARDDALYGGYYLDYWGQGTLVTVSS
VL: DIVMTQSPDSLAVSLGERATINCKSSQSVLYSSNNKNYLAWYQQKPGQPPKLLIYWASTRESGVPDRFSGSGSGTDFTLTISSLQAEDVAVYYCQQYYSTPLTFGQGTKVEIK
Molecule B2 returned a Kd in the test with human VISTA of 0.64 nM.

B3: INX200 (antibody, V domains shown)
VH: QVQLVQSGAEVKKPGASVKVSCKASGYTFANYLIGWVRQAPGQRLEWMGDIYPGGGFISYNEKFKGRVTITRDTSASTAYMELSSLRSEDTAVYYCARRFDYGGYFFDYWGQGTLVTVSS
VL: DIVMTQSPLSLPVTPGEPASISCRSSQSIVHSNGNIYLEWYLQKPGQSPQLLIYKVSNRFSGVPDRFSGSGSGTDFTLKISRVEAEDVGVYYCFQGSHVPWTFGQGTKLEIK
modifications: Alexa Fluor 488 label in the flow-cytometry results (p-1139); unlabelled in the ELISAs
Usually EC50 (read off the curve) stands for the midpoint of the concentration-response curve. With B3, the results for the “EC50 (read off the curve)” value with hIX50 (human VISTA ECD) [1] and with hIX50 (human VISTA ECD) [2] were around 8 ng/mL and around 0.7 ng/mL, respectively.

B4: INX200A (other)
VH: QVQLVQSGAEVKKPGASVKVSCKASGYTFANYLIGWVRQAPGQRLEWMGDIYPGGGFISYNEKFKGRVTITRDTSASTAYMELSSLRSEDTAVYYCARRFDYGGYFFDYWGQGTLVTVSS
VL: DIVMTQSPLSLPVTPGEPASISCRSSQSIVHSNGNIYLEWYLQKPGQSPQLLIYKVSNRFSGVPDRFSGSGSGTDFTLKISRVEAEDVGVYYCFQGSHVPWTFGQGTKLEIK
modifications: Linker/payload A (esterase sensitive linker with dexamethasone) on the reduced interchain disulfide cysteines, DAR about 8; these cysteines lie in the constant regions, which are not given here.
On to B4, for which the “EC50 (read off the curve)” value with hIX50 (human VISTA ECD) [3] was around 10 ng/mL.

B5: VSTB92 (antibody, V domains shown)
VH: QVQLVQSGAEVKKPGASVKVSCKASGYTFANYLIGWVRQAPGQRLEWMGDIYPGGGFISYNEKFKGRVTITRDTSASTAYMELSSLRSEDTAVYYCARRFDYGGYFFDYWGQGTLVTVSS
VL: DIVMTQSPLSLPVTPGEPASISCRSSQSIVHSNGNIYLEWYLQKPGQSPQLLIYKVSNRFSGVPDRFSGSGSGTDFTLKISRVEAEDVGVYYCFQGSHVPWTFGQGTKLEIK
Consider B5, for which, in the test with human VISTA, the affinity, expressed as Kd, was 0.09 nM.

B6: VSTB66 (antibody, V domains shown)
VH: QVQLVQSGAEVKKPGASVKVSCKASGYPFTGYFMHWVRQAPGQGLEWMGRINPYNGGTVYNQNFNDRVTMTRDTSTSTVYMELSSLRSEDTAVYYCARWTFDGLFMDYWGQGTTVTVSS
VL: DVVMTQSPLSLPVTLGQPASISCRASENVDKYGISFMNWFQQRPGQSPRRLIYATSNQGSGVPDRFSGSGSGTDFTLKISRVEAEDVGVYYCQQSKEDPYTFGQGTKLEIK
The molecule B6 gave a Kd with human VISTA of 0.08 nM.
